From paper PMC9691366, “Modulating the pharmacokinetic profile of Actinium-225-labeled macropa-derived radioconjugates by dual targeting of PSMA and albumin” (Theranostics, 2022)

How the values were obtained:
[1] = format: physicochemical; conditions: pH 7.4
Procedure: 1-Octanol/water distribution coefficients (log D) were determined by applying the shake-flask-method. 20 µL of the reaction mixture were poured into 580 µL of 5xPBS (pH 7.4). Afterwards, 600 µL of 1-octanol was added and the two-phase-system was vigorously stirred for 5 min. Then, the samples were centrifuged, the phases were separated and the count rates were measured using ISOMED2160 sodium iodide crystal detector (at least 4 h after phase separation due to initial decay products).

[2] = tested on: LNCaP tumor-bearing SCID mice; test: Ex vivo biodistribution in LNCaP tumor-bearing SCID mice
Excerpt: (§1) The biodistribution experiments with [^225Ac]Ac-mcp-M-alb-PSMA and [^225Ac]Ac-mcp-D-alb-PSMA were accomplished using LNCaP tumor-bearing mice. The SCID male mice (ENVIGO, Indianapolis, IN, USA) 8 weeks old were subcutaneously xenografted into the right flank with 10∙10^6 LNCaP cells (ATCC, Manassas, VA, USA) mixed with Matrigel Matrix (Corning Inc., Corning, NY, USA) at a 1:1 ratio. The tumor growth was periodically monitored by caliper-based measurements. When the tumor volume reached 200-300 mm^3 (i.e., approx. 6 weeks after the xenografting of the cells), the mice were enrolled in the biodistribution study. All experimental animals were housed in a specific-pathogen-free animal facility and all experiments with animals were performed in accordance with appropriate legal norms (Czech Law No. 246/1992) and with the approval of the Ministry of Education, Youth and Sports (MSMT-35035/2019-3) and approval of the Ethical committee of Faculty of Medicine and Dentistry, Palacky University in Olomouc. The number of animals was reduced as much as possible (n = 3-4 per group and time point) for in vivo experiments in order to strictly follow 3Rs principle.
(§2) For the purpose of biodistribution studies, the ^225Ac-radioconjugates were diluted with saline. The diluted ^225Ac-radioconjugates were applied retro-orbitally (r.o.) to the experimental animals at a dose of 50 kBq per mouse corresponding to 10 pmol of the PSMA-inhibitor. The radioactivity application was carried out under 2% isoflurane anesthesia (FORANE, Abbott Laboratories, Abbott Park, IL, USA) to minimize animal suffering and to prevent animal motion. The mice were sacrificed by cervical dislocation 1, 4, 24, 48, 72, and 120 h (plus 168 h for [^225Ac]Ac-mcp-D-alb-PSMA) post-injection and organs of interest (blood, spleen, pancreas, stomach, intestine, kidneys, liver, heart, lungs, muscle, bone, and tumor) were collected. The organs were weighed, and their radioactivity was counted on an automatic gamma counter. The uptake of the ^225Ac-radioconjugates was expressed as a percentage of injected dose per gram of the corresponding organ (%ID/g). The area under the curve (AUC) was determined for both tested PSMA ligands from non-decay-corrected data obtained from the ex vivo biodistribution data of the tumors, kidneys, and blood.

[3] = as above; conditions: mouse, in vivo, 50 kBq per mouse; for tissue uptake at 1 h: 1 h p.i.; for tissue uptake at 4 h: 4 h p.i.; for tissue uptake at 24 h: 24 h p.i.; for tissue uptake at 48 h: 48 h p.i.; for tissue uptake at 72 h: 72 h p.i.; for tissue uptake at 120 h: 120 h p.i.; for tissue uptake at 168 h: 168 h p.i.
Excerpt: as §1, §2

[4] = non-decay corrected biodistribution data, mean ± SD

O=C(O)CC[C@H](NC(=O)N[C@@H](CCCCNC(=O)[C@H](Cc1ccc2ccccc2c1)NC(=O)[C@H]1CC[C@H](CNC(=O)[C@H](CCCCn2cc(COc3cc(CN4CCOCCOCCN(Cc5cc(OCc6cn(CCCC[C@H](NC(=O)[C@H](CCC(=O)O)NC(=O)CCCc7ccc(I)cc7)C(=O)NC[C@H]7CC[C@H](C(=O)N[C@@H](Cc8ccc9ccccc9c8)C(=O)NCCCC[C@H](NC(=O)N[C@@H](CCC(=O)O)C(=O)O)C(=O)O)CC7)nn6)cc(C(=O)O)n5)CCOCCOCC4)nc(C(=O)O)c3)nn2)NC(=O)[C@H](CCC(=O)O)NC(=O)CCCc2ccc(I)cc2)CC1)C(=O)O)C(=O)O [[^225Ac]Ac-mcp-D-alb-PSMA, metal not drawn]
logD [1]: -1.7 | tumor uptake (AV) ([2]; 168 h p.i.): 153.48 ± 37.76 %ID/g | AUC for tumor accumulation compared to monovalent counterpart ([2]; mouse, in vivo): almost double | AUCTu-to-AUCBl ([2]; mouse, in vivo): 26 | AUCTu-to-AUCKi ([2]; mouse, in vivo): 1.4 | AUCTu-to-AUCLi ([2]; mouse, in vivo): 20 | AUCTu-to-AUCLi ratio compared with monovalent version of the ligand ([2]; mouse, in vivo): 0.7 fold | blood clearance: duration of excretion ([2]; mouse, in vivo): 72 h | maximal tumor uptake compared to counterpart without dedicated albumin binder ([2]; mouse, in vivo): twelve times higher | AUC Blood [2, 4]: 249 ± 10.4 %ID/g.h | AUC Kidneys [2, 4]: 4519 ± 193 %ID/g.h | AUC Liver [2, 4]: 328 ± 15.8 %ID/g.h | AUC Tumor [2, 4]: 6455 ± 411 %ID/g.h | tissue to tissue ratio ([3]; male, SCID, total radioactivity): 1420 | tissue uptake at 1 h ([3]; blood uptake (AV)): 8.44 %ID/g | tissue uptake at 4 h ([3]; blood uptake (AV)): 6.5 %ID/g | tissue uptake at 24 h ([3]; blood uptake (AV)): 2.85 %ID/g | tissue uptake at 48 h ([3]; blood uptake (AV)): 1.22 %ID/g | tissue uptake at 72 h ([3]; blood uptake (AV)): 0.7 %ID/g | tissue uptake at 120 h ([3]; blood uptake (AV)): 0.2 %ID/g | tissue uptake at 168 h ([3]; blood uptake (AV)): 0.11 %ID/g | tissue uptake at 1 h ([3]; femur uptake (AV)): 0.84 %ID/g | tissue uptake at 4 h ([3]; femur uptake (AV)): 0.89 %ID/g | tissue uptake at 24 h ([3]; femur uptake (AV)): 0.74 %ID/g | tissue uptake at 48 h ([3]; femur uptake (AV)): 0.96 %ID/g | tissue uptake at 72 h ([3]; femur uptake (AV)): 0.87 %ID/g | tissue uptake at 120 h ([3]; femur uptake (AV)): 1.22 %ID/g | tissue uptake at 168 h ([3]; femur uptake (AV)): 1.3 %ID/g | tissue uptake at 1 h ([3]; heart uptake (AV)): 2.47 %ID/g | tissue uptake at 4 h ([3]; heart uptake (AV)): 2.32 %ID/g | tissue uptake at 24 h ([3]; heart uptake (AV)): 1.21 %ID/g | tissue uptake at 48 h ([3]; heart uptake (AV)): 0.94 %ID/g | tissue uptake at 72 h ([3]; heart uptake (AV)): 0.82 %ID/g | tissue uptake at 120 h ([3]; heart uptake (AV)): 0.88 %ID/g | tissue uptake at 168 h ([3]; heart uptake (AV)): 0.83 %ID/g | tissue uptake at 1 h ([3]; intestine uptake (AV)): 0.8 %ID/g | tissue uptake at 4 h ([3]; intestine uptake (AV)): 0.64 %ID/g | tissue uptake at 24 h ([3]; intestine uptake (AV)): 0.58 %ID/g | tissue uptake at 48 h ([3]; intestine uptake (AV)): 0.37 %ID/g | tissue uptake at 72 h ([3]; intestine uptake (AV)): 0.26 %ID/g | tissue uptake at 120 h ([3]; intestine uptake (AV)): 0.19 %ID/g | tissue uptake at 168 h ([3]; intestine uptake (AV)): 0.17 %ID/g | tissue uptake at 1 h ([3]; kidneys uptake (AV)): 9.23 %ID/g | tissue uptake at 4 h ([3]; kidneys uptake (AV)): 21.8 %ID/g | tissue uptake at 24 h ([3]; kidneys uptake (AV)): 43.7 %ID/g | tissue uptake at 48 h ([3]; kidneys uptake (AV)): 59.9 ± 6.46 %ID/g | tissue uptake at 72 h ([3]; kidneys uptake (AV)): 50.1 %ID/g | tissue uptake at 120 h ([3]; kidneys uptake (AV)): 37.6 %ID/g | tissue uptake at 168 h ([3]; kidneys uptake (AV)): 33.7 ± 9.57 %ID/g | tissue uptake at 1 h ([3]; liver uptake (AV)): 2.42 %ID/g | tissue uptake at 4 h ([3]; liver uptake (AV)): 2.45 %ID/g | tissue uptake at 24 h ([3]; liver uptake (AV)): 2.52 %ID/g | tissue uptake at 48 h ([3]; liver uptake (AV)): 3.73 %ID/g | tissue uptake at 72 h ([3]; liver uptake (AV)): 3.39 %ID/g | tissue uptake at 120 h ([3]; liver uptake (AV)): 3.9 %ID/g | tissue uptake at 168 h ([3]; liver uptake (AV)): 4.31 %ID/g | tissue uptake at 1 h ([3]; lung uptake (AV)): 5.67 %ID/g | tissue uptake at 4 h ([3]; lung uptake (AV)): 4.57 %ID/g | tissue uptake at 24 h ([3]; lung uptake (AV)): 2.3 %ID/g | tissue uptake at 48 h ([3]; lung uptake (AV)): 2.75 %ID/g | tissue uptake at 72 h ([3]; lung uptake (AV)): 2.98 %ID/g | tissue uptake at 120 h ([3]; lung uptake (AV)): 7.5 %ID/g | tissue uptake at 168 h ([3]; lung uptake (AV)): 4.95 %ID/g | tissue uptake ([3]; maximal uptake in spleen): 11.4 ± 2.89 %ID/g | tissue uptake at 1 h ([3]; muscle uptake (AV)): 0.49 %ID/g | tissue uptake at 4 h ([3]; muscle uptake (AV)): 0.58 %ID/g | tissue uptake at 24 h ([3]; muscle uptake (AV)): 0.28 %ID/g | tissue uptake at 48 h ([3]; muscle uptake (AV)): 0.29 %ID/g | tissue uptake at 72 h ([3]; muscle uptake (AV)): 0.2 %ID/g | tissue uptake at 120 h ([3]; muscle uptake (AV)): 0.24 %ID/g | tissue uptake at 168 h ([3]; muscle uptake (AV)): 0.22 %ID/g | tissue uptake at 1 h ([3]; pancreas uptake (AV)): 0.68 %ID/g | tissue uptake at 4 h ([3]; pancreas uptake (AV)): 0.58 %ID/g | tissue uptake at 24 h ([3]; pancreas uptake (AV)): 0.5 %ID/g | tissue uptake at 48 h ([3]; pancreas uptake (AV)): 0.35 %ID/g | tissue uptake at 72 h ([3]; pancreas uptake (AV)): 0.39 %ID/g | tissue uptake at 120 h ([3]; pancreas uptake (AV)): 0.42 %ID/g | tissue uptake at 168 h ([3]; pancreas uptake (AV)): 0.37 %ID/g | tissue uptake at 1 h ([3]; spleen uptake (AV)): 7.11 %ID/g | tissue uptake at 4 h ([3]; spleen uptake (AV)): 6.21 %ID/g | tissue uptake at 24 h ([3]; spleen uptake (AV)): 5.24 %ID/g | tissue uptake at 48 h ([3]; spleen uptake (AV)): 8.33 %ID/g | tissue uptake at 72 h ([3]; spleen uptake (AV)): 10.2 %ID/g | tissue uptake at 120 h ([3]; spleen uptake (AV)): 10 %ID/g | tissue uptake at 168 h ([3]; spleen uptake (AV)): 11.4 %ID/g | tissue uptake at 1 h ([3]; stomach uptake (AV)): 0.98 %ID/g | tissue uptake at 4 h ([3]; stomach uptake (AV)): 0.59 %ID/g | tissue uptake at 24 h ([3]; stomach uptake (AV)): 0.61 %ID/g | tissue uptake at 48 h ([3]; stomach uptake (AV)): 0.4 %ID/g | tissue uptake at 72 h ([3]; stomach uptake (AV)): 0.27 %ID/g | tissue uptake at 120 h ([3]; stomach uptake (AV)): 0.34 %ID/g | tissue uptake at 168 h ([3]; stomach uptake (AV)): 0.27 %ID/g | tissue uptake at 1 h ([3]; tumor uptake (AV)): 3.35 %ID/g | tissue uptake at 4 h ([3]; tumor uptake (AV)): 10.6 %ID/g | tissue uptake at 24 h ([3]; tumor uptake (AV)): 27.6 %ID/g | tissue uptake at 48 h ([3]; tumor uptake (AV)): 57.4 %ID/g | tissue uptake at 72 h ([3]; tumor uptake (AV)): 86.4 %ID/g | tissue uptake at 120 h ([3]; tumor uptake (AV)): 120 %ID/g | tissue uptake at 168 h ([3]; tumor uptake (AV)): 127 %ID/g
